According to PMC12511567, “UBE2J2 sensitizes the ERAD ubiquitination cascade to changes in membrane lipid saturation” (Nature Communications, 2025):

Key:
[1] = target: ubiquitin-activating enzyme E1 (yeast Uba1) (yeast, UniProt P22515 1-1024); test: cross-linking; UBE2J2 proteoliposomes (10% or 60% SFAs, P/L = 1:32,000) incubated with E1 ± BMOE; with or without pre-incubation with low OG; SDS-PAGE and fluorescence scanning; details: both partners purified
[2] = target: the molecule itself; test: FRET or BRET; donor UBE2J2_(A488) and acceptor UBE2J2_(A594) co-reconstituted in liposomes with 10% or 60% SFAs (P/L = 1:20,000 and 1:5000); 37 °C; 20 mM HEPES/KOH pH 7.4, 150 mM KCl, 5 mM magnesium acetate, 0.1 mM TCEP, 0.2 mg/mL BSA; excitation 480 nm, I614/I516

Chain of ubiquitin-activating enzyme E1 (yeast Uba1) (P22515 whole entry): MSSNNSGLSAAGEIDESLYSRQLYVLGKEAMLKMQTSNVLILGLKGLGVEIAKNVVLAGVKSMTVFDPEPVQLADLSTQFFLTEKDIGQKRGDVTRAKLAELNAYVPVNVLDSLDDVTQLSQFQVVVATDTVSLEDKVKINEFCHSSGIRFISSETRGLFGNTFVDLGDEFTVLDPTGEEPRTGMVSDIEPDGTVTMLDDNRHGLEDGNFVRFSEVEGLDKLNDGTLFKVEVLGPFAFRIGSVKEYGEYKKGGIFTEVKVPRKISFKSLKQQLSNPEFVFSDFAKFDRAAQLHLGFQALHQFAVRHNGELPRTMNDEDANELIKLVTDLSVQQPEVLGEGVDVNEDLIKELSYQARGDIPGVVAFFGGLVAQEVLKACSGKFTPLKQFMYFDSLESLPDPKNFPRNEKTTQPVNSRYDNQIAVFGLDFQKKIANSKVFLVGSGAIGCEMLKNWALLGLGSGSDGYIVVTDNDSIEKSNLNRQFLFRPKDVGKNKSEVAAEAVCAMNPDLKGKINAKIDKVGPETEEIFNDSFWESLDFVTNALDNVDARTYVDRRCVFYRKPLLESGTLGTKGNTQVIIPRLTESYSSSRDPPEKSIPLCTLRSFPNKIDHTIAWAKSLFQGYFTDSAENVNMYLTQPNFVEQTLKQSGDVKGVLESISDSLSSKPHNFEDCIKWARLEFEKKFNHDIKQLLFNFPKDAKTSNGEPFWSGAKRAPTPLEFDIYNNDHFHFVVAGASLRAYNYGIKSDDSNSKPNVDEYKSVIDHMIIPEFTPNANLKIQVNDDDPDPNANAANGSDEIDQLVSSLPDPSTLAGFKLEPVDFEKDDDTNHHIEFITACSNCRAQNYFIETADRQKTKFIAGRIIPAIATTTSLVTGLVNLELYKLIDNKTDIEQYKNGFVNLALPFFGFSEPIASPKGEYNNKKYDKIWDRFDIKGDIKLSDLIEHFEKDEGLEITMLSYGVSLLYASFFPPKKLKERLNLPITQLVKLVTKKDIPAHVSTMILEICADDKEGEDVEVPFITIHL

Row | Binder | binding result [1] | binding result [2]
1 | UBE2J2 (full-length, membrane-anchored, fluorescently labeled, reconstituted in liposomes) (enzyme, human, UniProt Q8N2K1 1-259, looked up, fluorescent label at the C-terminus by sortase A (fluorophore-conjugated GGC peptide): DL680; Alexa Fluor 488 or Alexa Fluor 594 in the FRET assay, UBE2J2, human, ubiquitin-conjugating enzyme E2 J2 with C-terminal transmembrane segment; The same construct carries different C-terminal dyes in different experiments; also called UBE2J2_(DL680); UBE2J2_(A488)) MSSTSSKRAPTTATQRLKQDYLRIKKDPVPYICAEPLPSNILEWHYVVRGPEMTPYEGGYYHGKLIFPREFPFKPPSIYMITPNGRFKCNTRLCLSITDFHPDTWNPAWSVSTILTGLLSFMVEKGPTLGSIETSDFTKRQLAVQSLAFNLKDKVFCELFPEVVEEIKQKQKAQDELSSRPQTLPLPDVVPDGETHLVQNGIQLLNGHAPGAVPNLAGLQQANRHHGLLGGALANLFVIVGFAAFAYTVKYVLRSIAQE | binds | binds
2 | UBE2J2^F137E (membrane-anchored, reconstituted in liposomes) (enzyme, human, UniProt Q8N2K1 1-259, looked up, fluorescently labeled (UBE2J2 variants were fluorescently labeled after affinity purification), UBE2J2, human, with F137E; also called UBE2J2 F137E mutant) MSSTSSKRAPTTATQRLKQDYLRIKKDPVPYICAEPLPSNILEWHYVVRGPEMTPYEGGYYHGKLIFPREFPFKPPSIYMITPNGRFKCNTRLCLSITDFHPDTWNPAWSVSTILTGLLSFMVEKGPTLGSIETSDETKRQLAVQSLAFNLKDKVFCELFPEVVEEIKQKQKAQDELSSRPQTLPLPDVVPDGETHLVQNGIQLLNGHAPGAVPNLAGLQQANRHHGLLGGALANLFVIVGFAAFAYTVKYVLRSIAQE | binds | 
